Test results as given in patent US20240052042A1 (Novartis, published 2024).
Positions count from the first letter of the chain named. One block for each binder: values may come before it.

Key:
[1] = target: T1, rat NPR1 (rNPR1) (rat, UniProt P18910 29-469, limits assumed); experiment: SET, FabCys
T1 construct: Soluble antigen
T1 sequence: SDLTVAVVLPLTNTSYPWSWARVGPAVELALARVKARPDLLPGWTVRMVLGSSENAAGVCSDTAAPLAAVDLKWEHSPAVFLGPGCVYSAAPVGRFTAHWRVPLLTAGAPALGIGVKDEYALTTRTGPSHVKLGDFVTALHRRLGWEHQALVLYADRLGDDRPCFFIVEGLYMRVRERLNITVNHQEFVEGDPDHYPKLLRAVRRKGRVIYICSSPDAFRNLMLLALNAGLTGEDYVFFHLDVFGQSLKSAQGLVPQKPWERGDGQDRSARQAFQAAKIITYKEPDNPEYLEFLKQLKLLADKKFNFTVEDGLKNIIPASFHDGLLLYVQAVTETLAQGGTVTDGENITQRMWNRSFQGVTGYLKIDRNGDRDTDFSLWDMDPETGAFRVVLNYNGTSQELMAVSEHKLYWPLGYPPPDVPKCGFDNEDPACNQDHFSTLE

[2] = target: T2, rNPR1-ANP complex (rat, UniProt P01160 124-151 (human entry), limits assumed); experiment: SET, FabCys
T2 construct: rNPR1 antigen in the presence of ANP; also called rNPR1 + 100 nM ANP
T2 sequence: T1 sequence
T2 sequence (peptide): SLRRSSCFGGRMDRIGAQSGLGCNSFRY

[3] = target: W74R hNPR1 mutant in the presence of ANP (human) (UniProt P01160); experiment: ELISA, 1 µM IgG
[4] = target: constitutively active human NPR1 mutant (W74R) (human) (UniProt P16066); experiment: ELISA, 1 µM IgG
[5] = target: T3, human Natriuretic Peptide Receptor 1 (hNPR1) (human, UniProt P16066 33-473, limits assumed); experiment: ELISA, 1 µM IgG; set-up: unit not given here
T3 construct: pannings used NPR1-hFc; also called NPR1-hFc
T3 sequence: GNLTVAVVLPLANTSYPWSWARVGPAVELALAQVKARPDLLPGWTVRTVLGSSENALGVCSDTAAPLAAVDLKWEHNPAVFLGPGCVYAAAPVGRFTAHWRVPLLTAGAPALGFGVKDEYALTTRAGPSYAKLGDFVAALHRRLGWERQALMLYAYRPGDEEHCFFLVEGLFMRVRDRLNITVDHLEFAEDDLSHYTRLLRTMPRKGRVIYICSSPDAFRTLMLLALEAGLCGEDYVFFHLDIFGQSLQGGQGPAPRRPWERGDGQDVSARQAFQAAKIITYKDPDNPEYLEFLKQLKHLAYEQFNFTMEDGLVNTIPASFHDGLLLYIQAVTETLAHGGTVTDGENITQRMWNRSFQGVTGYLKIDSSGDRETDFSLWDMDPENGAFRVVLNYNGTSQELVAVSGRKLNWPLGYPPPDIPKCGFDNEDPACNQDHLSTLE

[6] = target: T4, hNPR1-ANP complex (human, UniProt P01160 124-151, limits assumed); experiment: ELISA, 1 µM IgG; set-up: unit not given here
T4 construct: hNPR1 antigen in the presence of ANP; also called hNPR1 + 100 nM ANP
T4 sequence: T3 sequence
T4 sequence (peptide): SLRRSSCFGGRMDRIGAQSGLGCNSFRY

[7] = target: T1, rat NPR1 (rNPR1); experiment: ELISA, 1 µM IgG; set-up: unit not given here
[8] = target: T2, rNPR1-ANP complex; experiment: ELISA, 1 µM IgG; set-up: unit not given here
[9] = target: T5, human NPR3 (counter target) (human, UniProt P17342 27-481, limits assumed); experiment: ELISA, 1 µM IgG; set-up: unit not given here
T5 construct: Pannings used hNPR3-hFc; also called hNPR3; hNPR3-hFc
T5 sequence (looked up): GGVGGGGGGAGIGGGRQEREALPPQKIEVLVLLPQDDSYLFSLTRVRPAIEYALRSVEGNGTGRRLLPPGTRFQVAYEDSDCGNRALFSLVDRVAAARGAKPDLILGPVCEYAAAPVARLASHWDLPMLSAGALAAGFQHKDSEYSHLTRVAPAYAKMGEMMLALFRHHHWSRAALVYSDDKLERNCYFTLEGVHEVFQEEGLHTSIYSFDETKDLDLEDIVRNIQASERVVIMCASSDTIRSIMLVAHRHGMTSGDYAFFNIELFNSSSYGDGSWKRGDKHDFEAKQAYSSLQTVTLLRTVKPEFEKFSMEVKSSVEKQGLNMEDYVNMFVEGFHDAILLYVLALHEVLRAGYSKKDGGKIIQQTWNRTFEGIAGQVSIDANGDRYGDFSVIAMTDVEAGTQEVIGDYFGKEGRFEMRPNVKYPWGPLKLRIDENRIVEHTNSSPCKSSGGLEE

[10] = target: T6, human NPR3 in the presence of ANP (human, UniProt P17342 27-481; P01160 124-151, limits assumed); experiment: ELISA, 1 µM IgG; set-up: unit not given here
T6 construct: also called hNPR3 + 100 nM ANP
T6 sequence (looked up): T5 sequence (looked up)
T6 sequence (peptide, looked up): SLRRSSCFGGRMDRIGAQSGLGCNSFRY

[11] = target: T7, human NPR1 on CHO-K1 cells (human, UniProt P16066 33-1061); experiment: cell-based or functional assay
T7 sequence: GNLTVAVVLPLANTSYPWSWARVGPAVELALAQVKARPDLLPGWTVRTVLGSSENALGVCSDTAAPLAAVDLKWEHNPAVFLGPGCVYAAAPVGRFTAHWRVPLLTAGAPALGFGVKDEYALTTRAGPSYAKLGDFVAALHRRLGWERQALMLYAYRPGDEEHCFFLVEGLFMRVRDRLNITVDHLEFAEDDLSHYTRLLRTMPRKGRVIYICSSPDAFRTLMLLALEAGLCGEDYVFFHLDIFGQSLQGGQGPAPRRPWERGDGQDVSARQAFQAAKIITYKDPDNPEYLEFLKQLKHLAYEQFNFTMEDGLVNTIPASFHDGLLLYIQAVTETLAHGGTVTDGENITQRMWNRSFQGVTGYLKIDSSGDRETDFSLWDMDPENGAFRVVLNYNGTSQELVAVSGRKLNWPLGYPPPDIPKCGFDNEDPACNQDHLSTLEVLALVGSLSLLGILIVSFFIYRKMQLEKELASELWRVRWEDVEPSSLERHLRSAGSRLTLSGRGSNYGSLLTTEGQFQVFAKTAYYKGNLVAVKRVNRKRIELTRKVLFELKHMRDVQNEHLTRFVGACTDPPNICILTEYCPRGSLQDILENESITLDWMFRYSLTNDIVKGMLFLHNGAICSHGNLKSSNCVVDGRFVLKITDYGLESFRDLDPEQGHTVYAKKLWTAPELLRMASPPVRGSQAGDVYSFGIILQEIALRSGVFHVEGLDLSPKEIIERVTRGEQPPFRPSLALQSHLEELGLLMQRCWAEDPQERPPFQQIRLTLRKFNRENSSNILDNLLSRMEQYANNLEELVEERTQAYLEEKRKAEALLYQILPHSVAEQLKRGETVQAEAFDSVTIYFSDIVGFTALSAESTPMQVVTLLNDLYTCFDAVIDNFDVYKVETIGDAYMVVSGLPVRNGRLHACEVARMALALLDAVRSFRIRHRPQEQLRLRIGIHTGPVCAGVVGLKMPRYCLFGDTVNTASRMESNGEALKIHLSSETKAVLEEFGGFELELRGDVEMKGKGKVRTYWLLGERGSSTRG

[12] = target: T8, human NPR1 on CHO-K1 cells in the presence of ANP (human, UniProt P01160 124-151); experiment: flow cytometry, hNPR1 CHO-K1 cells, IgG
T8 construct: also called hNPR1 CHO K1 + 100 nM ANP
T8 sequence: T7 sequence
T8 sequence (peptide): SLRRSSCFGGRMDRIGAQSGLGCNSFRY

[13] = target: T7, human NPR1 on CHO-K1 cells; experiment: flow cytometry, hNPR1 CHO-K1 cells, IgG
[14] = target: constitutively active human NPR1 mutant (W74R) (human) (UniProt P16066); experiment: ELISA, IgG titrated on coated antigen, fluorescence [Cont.]
[15] = target: T3, human Natriuretic Peptide Receptor 1 …; experiment: SET, FabCys
[16] = target: T4, hNPR1-ANP complex; experiment: SET, FabCys
[17] = target: T9, human NPR2 on CHO cells (human, UniProt P20594 23-1047); experiment: cell-based or functional assay
T9 sequence (looked up): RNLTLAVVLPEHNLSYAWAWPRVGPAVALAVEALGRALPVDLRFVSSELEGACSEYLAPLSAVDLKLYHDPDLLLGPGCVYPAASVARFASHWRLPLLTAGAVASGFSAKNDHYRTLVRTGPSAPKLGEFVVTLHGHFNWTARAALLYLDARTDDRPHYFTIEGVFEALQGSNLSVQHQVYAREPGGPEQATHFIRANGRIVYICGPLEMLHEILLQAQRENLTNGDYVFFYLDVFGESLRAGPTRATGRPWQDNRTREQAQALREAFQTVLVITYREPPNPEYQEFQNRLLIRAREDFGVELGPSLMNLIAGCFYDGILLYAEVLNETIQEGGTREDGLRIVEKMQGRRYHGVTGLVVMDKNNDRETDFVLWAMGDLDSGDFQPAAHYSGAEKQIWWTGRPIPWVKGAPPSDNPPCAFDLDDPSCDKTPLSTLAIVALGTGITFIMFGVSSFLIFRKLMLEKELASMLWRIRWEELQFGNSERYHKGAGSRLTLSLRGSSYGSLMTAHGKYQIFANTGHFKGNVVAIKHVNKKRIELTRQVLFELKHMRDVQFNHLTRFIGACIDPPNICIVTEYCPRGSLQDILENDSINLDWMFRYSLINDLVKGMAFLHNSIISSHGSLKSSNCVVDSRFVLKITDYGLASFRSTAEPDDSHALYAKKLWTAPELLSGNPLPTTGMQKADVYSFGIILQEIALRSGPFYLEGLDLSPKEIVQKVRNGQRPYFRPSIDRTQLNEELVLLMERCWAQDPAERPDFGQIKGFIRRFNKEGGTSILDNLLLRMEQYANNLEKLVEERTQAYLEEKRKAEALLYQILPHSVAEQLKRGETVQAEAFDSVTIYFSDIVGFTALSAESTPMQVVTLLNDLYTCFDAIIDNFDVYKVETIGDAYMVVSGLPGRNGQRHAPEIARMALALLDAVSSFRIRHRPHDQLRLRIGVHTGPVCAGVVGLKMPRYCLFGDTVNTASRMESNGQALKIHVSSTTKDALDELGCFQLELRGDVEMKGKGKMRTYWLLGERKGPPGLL

B2: YY05 (IgG format) (antibody, V domains shown)
VH: EVQLVQSGAEVKKPGESLKISCKGSGYSFTSYWISWVRQMPGKGLEWMGIIYPGTSYTRYSPSFQGQVTISADKSISTAYLQWSSLKASDTAMYYCARGAVAGQLGFDHWGQGTLVTVSS
VL: QSVLTQPPSVSGAPGQRVTISCTGSSSNIGAGYDVHWYQQLPGTAPKLLIYGNSNRPSGVPDRFSGSKSGTSASLAITGLQAEDEADYYCQSYYTSSHGPVFGGGTKLTVLG
notes: also called YY05_LALA
ELISA binding at 1 µM IgG [3]: 23
ELISA binding at 1 µM IgG [4]: 69
ELISA binding at 1 µM IgG [5]: 81
ELISA binding at 1 µM IgG [6]: 32
ELISA binding at 1 µM IgG [7]: 11
ELISA binding at 1 µM IgG [8]: 16
ELISA binding at 1 µM IgG [9]: 7
ELISA binding at 1 µM IgG [10]: 4
cGMP conc [nM] at 1 µM IgG, +0.075 nM ANP [11]: 15 nM
cGMP conc [nM] at 1 µM IgG, without ANP [11]: 13 nM
flow cytometry S/BG at 1 µM IgG [12]: 5 S/BG
flow cytometry S/BG at 1 µM IgG [13]: 15 S/BG
EC50 (read off the curve) [14]: 1 nM

B4: XX15 (IgG) (antibody, V domains shown)
VH: EVQLLESGGGLVQPGGSLRLSCAASGFTFSSYWMNWVRQAPGKGLEWVSVIESKGNYIFYADSVKGRFTISRDNSKNTLYLQMNSLRAEDTAVYYCARDRYSMIYSYGAGAFDYWGQGTLVTVSS
VL: DIQMTQSPSSLSASVGDRVTITCRASQGISSYLAWYQQKPGKAPKLLIYTASTLQSGVPSRFSGSGSGTDFTLTISSLQPEDFATYYCQQEWVKPRTFGQGTKVEIK
cGMP generation EC50 [17]: > 500 nM
cGMP generation Y max (% of ANP) [17]: < 1 % of ANP

B5: XX18 (IgG) (antibody, V domains shown)
VH: B4 VH
VL: B4 VL with V93A
cGMP generation EC50 [17]: > 500 nM
cGMP generation Y max (% of ANP) [17]: < 1 % of ANP

The remaining lines, values ahead:

Kd [1]: 52 nM
Kd [2]: 36 nM
B1: ZZ17 (FabCys format) (Fab, V domains shown)
VH: EVQLLESGGGLVQPGGSLRLSCAASGFTFSDYAISWVRQAPGKGLEWVSSISGGGYHTQYAGSVKGRFTISRDNSKNTLYLQMNSLRAEDTAVYYCARPYLGDRRSYGFDHWGQGTLVTVSS
VL: QSALTQPASVSGSPGQSITISCTGTSSDVGSYNLVSWYQQHPGKAPKLMIYEGSKRPSGVSNRFSGSKSGNTASLTISGLQAEDEADYYCSSYGFHIVVVVFGGGTKLTVL
notes: Monovalent FabCys

Kd [15]: 0.74 nM
Kd [16]: 1.2 nM
B3: ZZ05 (FabCys format) (Fab, V domains shown)
VH: B2 VH with A100S, V101L, A102P, Q104L
VL: QSVLTQPPSVSGAPGQRVTISCTGSSSNIGAGYDVHWYQQLPGTAPKLLIYGNSNRPNGVPDRFSGSKSGTSASLAITGLQAEDEADYYCQSYGAFPRFVVFGGGTKLTVL
notes: Monovalent FabCys
